Legend:
[1] = target: T1, human PD1 expressed on HEK293F cells (human, UniProt Q15116 25-288); experiment: flow cytometry on transfected HEK293F cells
T1 construct: whole, on cells

[2] = target: T2, human CTLA4 expressed on HEK293F cells (human, UniProt P16410 36-223); experiment: flow cytometry on transfected HEK293F cells
T2 construct: whole, on cells

[3] = target: T3, human LAG3 expressed on HEK293F cells (human, UniProt P18627 23-525); experiment: flow cytometry on transfected HEK293F cells
T3 construct: whole, on cells
T3 sequence (looked up): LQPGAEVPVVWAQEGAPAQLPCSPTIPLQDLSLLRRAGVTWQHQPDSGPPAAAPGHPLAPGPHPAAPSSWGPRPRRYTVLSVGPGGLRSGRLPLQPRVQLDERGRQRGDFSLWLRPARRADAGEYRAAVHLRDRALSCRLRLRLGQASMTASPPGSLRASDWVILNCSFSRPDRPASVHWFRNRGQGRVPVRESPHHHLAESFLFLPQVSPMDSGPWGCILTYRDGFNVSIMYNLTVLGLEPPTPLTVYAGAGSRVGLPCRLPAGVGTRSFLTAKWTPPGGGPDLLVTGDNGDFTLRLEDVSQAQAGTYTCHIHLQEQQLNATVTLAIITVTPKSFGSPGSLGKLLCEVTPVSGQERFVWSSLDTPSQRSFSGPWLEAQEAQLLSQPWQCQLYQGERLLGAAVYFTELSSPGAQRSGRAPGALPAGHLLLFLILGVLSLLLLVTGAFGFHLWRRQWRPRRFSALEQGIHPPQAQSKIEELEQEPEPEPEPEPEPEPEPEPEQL

[4] = target: T4, human TIM3 expressed on HEK293F cells (human, UniProt Q8TDQ0 22-301); experiment: flow cytometry on transfected HEK293F cells
T4 construct: whole, on cells

[5] = target: T5, human B7-H3 expressed on HEK293F cells (human, UniProt Q5ZPR3 29-534); experiment: flow cytometry on transfected HEK293F cells
T5 construct: whole, on cells
T5 sequence (looked up): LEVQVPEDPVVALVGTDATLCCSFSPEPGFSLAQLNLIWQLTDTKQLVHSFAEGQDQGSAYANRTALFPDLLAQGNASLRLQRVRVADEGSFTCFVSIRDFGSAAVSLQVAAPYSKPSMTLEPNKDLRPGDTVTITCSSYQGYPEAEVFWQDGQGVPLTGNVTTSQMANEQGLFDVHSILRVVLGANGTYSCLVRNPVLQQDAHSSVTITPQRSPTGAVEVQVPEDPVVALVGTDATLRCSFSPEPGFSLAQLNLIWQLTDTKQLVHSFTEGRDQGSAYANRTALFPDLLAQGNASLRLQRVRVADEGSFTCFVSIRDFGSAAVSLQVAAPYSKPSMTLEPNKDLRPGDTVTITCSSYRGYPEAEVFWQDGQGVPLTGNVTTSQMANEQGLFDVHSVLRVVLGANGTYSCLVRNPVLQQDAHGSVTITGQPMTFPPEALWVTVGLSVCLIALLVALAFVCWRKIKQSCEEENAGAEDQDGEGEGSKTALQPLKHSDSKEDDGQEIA

[6] = target: T6, human PD-L1-Fc fusion protein (Sino Biological Cat #10084-H02H) (human, UniProt Q9NZQ7 19-239); experiment: SPR (Biacore T200), human PD-L1-Fc immobilized (300 RU), IgG in solution
T6 construct: bought; not shown: Fc part of the bought fusion
T6 sequence (Q9NZQ7 19-239 limits assumed): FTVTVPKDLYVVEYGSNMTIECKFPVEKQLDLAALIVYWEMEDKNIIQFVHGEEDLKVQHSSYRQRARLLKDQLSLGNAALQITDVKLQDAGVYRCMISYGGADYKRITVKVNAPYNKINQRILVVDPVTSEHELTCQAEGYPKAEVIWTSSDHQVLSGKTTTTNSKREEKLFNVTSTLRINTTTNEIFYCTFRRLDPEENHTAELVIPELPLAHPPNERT

[7] = target: T7, human PD-L1 expressed on cell surface (human, UniProt Q9NZQ7 19-290); experiment: cell ELISA on HCC827 cells fixed with 4% paraformaldehyde, absorbance at 450 nm
T7 construct: whole, on cells; also called full-length human PD-L1; cell surface PD-L1
T7 sequence (Q9NZQ7 19-290): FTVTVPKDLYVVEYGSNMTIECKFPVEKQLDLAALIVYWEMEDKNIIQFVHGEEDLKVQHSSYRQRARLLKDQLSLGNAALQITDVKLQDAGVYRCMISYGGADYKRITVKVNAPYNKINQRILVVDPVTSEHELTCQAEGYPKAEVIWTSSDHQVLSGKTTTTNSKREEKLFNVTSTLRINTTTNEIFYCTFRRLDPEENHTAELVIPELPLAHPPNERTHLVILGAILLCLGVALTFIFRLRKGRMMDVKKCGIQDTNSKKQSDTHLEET

[8] = target: T7, human PD-L1 expressed on cell surface; experiment: flow cytometry on stable cell line 293T-002 expressing PD-L1; 293T-002 cells expressing PD-L1, flow cytometry
[9] = target: T6, human PD-L1-Fc fusion protein (Sino …); experiment: competition ELISA, PD1-Fc (1 ug/mL) coated, biotinylated PD-L1-Fc mixed with antibody, HRP neutravidin; blocked ligand PD1-Fc
[10] = target: T7, human PD-L1 expressed on cell surface; experiment: flow cytometry, HEK293F cells transiently expressing the target, 100 nM antibody, PE anti-human Fc; Mean (PE-A against FITC-A, GFP surrogate)
[11] = target: T8, rhesus PD-L1 expressed on HEK293F cells (rhesus, UniProt F6VEW6 19-290); experiment: as above
T8 construct: whole, on cells

[12] = target: T1, human PD1 expressed on HEK293F cells; experiment: as above
[13] = target: T2, human CTLA4 expressed on HEK293F cells; experiment: as above
[14] = target: T3, human LAG3 expressed on HEK293F cells; experiment: as above
[15] = target: T4, human TIM3 expressed on HEK293F cells; experiment: as above
[16] = target: T7, human PD-L1 expressed on cell surface; experiment: blocking by flow cytometry, HEK293F cells expressing full-length human PD-L1, 100 nM antibody then 100 nM biotinylated PD1-His (blocked ligand), Alexa fluor 633 streptavidin; isotype control panel Q2 35.1%

T1 sequence (Q15116 25-288): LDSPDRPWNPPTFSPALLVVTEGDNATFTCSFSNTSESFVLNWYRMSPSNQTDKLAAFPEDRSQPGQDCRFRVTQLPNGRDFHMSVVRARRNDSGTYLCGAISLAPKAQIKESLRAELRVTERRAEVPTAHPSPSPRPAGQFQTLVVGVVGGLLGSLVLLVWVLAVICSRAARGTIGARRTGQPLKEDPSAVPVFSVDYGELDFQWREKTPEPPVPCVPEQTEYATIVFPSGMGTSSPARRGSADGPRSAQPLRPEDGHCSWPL
T2 sequence (P16410 36-223): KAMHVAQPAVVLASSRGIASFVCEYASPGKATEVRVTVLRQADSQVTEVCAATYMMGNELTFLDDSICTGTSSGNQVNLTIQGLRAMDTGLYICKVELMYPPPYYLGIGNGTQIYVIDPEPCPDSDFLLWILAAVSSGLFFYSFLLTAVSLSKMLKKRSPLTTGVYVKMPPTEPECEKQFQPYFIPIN

B1: TY21421 (antibody, V domains shown)
VH: EVQLVESGGGLVQPGGSLRLSCAASGYSISSGYYWGWIRQAPGKGLEWIGIIYPSGGGTNYAQKFQGRVTISRDNSKNTLYLQLNSLRAEDTAVYYCARGGGLGFDYWGQGTLVTVSS
VL: DIQLTQSPSSLSASVGDRVTITCRASQSIPSFLNWYQQKPGKAPKLLIYAASSLQSGVPSRFSGSGSGTDFTLTISSLQPEDFATYYCQHYISWPRQFTFGQGTKVEIKR
notes: IgG1 (wild type) made from Fab B15041, from HEK293F cells
binding result [1]: no binding (tested: 100 nM) | binding result [2]: no binding (tested: 100 nM) | binding result [3]: no binding (tested: 100 nM) | binding result [4]: no binding (tested: 100 nM) | binding result [5]: no binding (tested: 100 nM) | Kd [6]: 0.00863 nM | koff [6]: 5.73e-05 s⁻¹ | kon [6]: 6.64e+06 M⁻¹ s⁻¹ | EC50 [7]: 0.3 nM | EC50 [8]: 1.08 nM | IC50 (read off the curve) [9]: ~6 nM | Mean [10]: 170000 | Mean [11]: 184000 | Mean [12]: 6980 | Mean [13]: 4900 | Mean [14]: 5850 | Mean [15]: 8100 | Q2 (percent of cells positive for GFP and for the APC signal of PD1-His, antibody present) [16]: 0.27%
